Laboratory results: US20160311934A1, “HYDROXYALKYL STARCH DERIVATIVES AS REACTANTS FOR COUPLING TO THIOL GROUPS” (FRESENIUS KABI DEUTSCHLAND GMBH, priority 2013, published 2016)

T1: Interleukin 1 receptor type I (Homo sapiens, UniProt P14778)
T1 construct: purchased R&D Systems
T1 sequence (P14778 18-569): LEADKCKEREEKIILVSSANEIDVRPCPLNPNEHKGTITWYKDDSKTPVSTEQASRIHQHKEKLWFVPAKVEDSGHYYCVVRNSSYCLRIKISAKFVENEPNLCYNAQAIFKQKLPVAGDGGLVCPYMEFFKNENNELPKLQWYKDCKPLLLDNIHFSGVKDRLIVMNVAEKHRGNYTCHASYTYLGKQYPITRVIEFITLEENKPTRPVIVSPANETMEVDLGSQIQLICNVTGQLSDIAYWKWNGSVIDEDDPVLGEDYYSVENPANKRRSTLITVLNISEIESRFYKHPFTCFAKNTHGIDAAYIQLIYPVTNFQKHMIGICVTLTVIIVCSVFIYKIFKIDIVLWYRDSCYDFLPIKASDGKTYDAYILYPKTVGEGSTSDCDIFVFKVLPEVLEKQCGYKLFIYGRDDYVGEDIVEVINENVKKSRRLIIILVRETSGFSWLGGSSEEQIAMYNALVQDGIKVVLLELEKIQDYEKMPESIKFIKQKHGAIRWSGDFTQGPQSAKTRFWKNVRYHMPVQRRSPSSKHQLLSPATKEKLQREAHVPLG

B1: unmodified SlyD: SlyD D101C, sensitive to lysis protein D, a prolylisomerase, unconjugated (protein, UniProt P0A9K9 1-196, looked up, variant D101C)
FKBP-type peptidyl-prolyl …: MKVAKDLVVSLAYQVRTEDGVLVDESPVSAPLDYLHGHGSLISGLETALEGHEVGDKFDVAVGANDAYGQYDENLVQRVPKDVFMGVDELQVGMRFLAETCQGPVPVEITAVEDDHVVVDGNHMLAGQNLKFNVEVVAIREATEEELAHGHVHGAHDHHHDHDHDGCCGGHGHDHGHEHGGEGCCGGKGNGGCGCH
B2: L12 X12 SlyD (conjugate, UniProt P0A9K9 1-196, looked up)
FKBP-type peptidyl-prolyl …: MKVAKDLVVSLAYQVRTEDGVLVDESPVSAPLDYLHGHGSLISGLETALEGHEVGDKFDVAVGANDAYGQYDENLVQRVPKDVFMGVDELQVGMRFLAETDQGPVPVEITAVEDDHVVVDGNHMLAGQNLKFNVEVVAIREATEEELAHGHVHGAHDHHHDHDHDGCCGGHGHDHGHEHGGEGCCGGKGNGGCGCH
modifications: HES X12 via linker L12

Experiments:
[1] = biological target: T1, Interleukin 1 receptor type I; experiment: SPR binding affinity on a BIAcore system; conditions: immobilized receptor on CM3 chip, 1:1 binding stoichiometry
Experimental: Conjugates of L12-HES with IL1RA were tested for binding affinity to its natural binding partner using SPR on a BIAcore system. Interleukin 1 receptor type I (R&D Systems) was immobilized on the chip surface and the kinetic binding parameters were determined for the conjugate in comparison to the unmodified protein (chip: CM3, immobilization: 950 RU, flow rate 30 μl/min, association 180 s, dissociation 900 s, regeneration: 6 s with 5 mM glycine buffer, pH 2.0). The curves were analyzed by assuming a 1:1 binding stoichiometry.

peptidyl prolyl bonds = experiment: Prolyl isomerase activity assay; type: biochemical
Experimental: Prolylisomerases like SlyD catalyze the trans to cis isomerization of peptidyl prolyl bonds. The prolyl isomerase activities of SlyD and the L12-HES-SlyD conjugate were measured by a prolyl isomerase activity assay according to Zoldak et al. (2009, Biochemistry, 48, 10423-10436). The rate constant of the cis to trans isomerization of the prolyl bond was determined using Origin 8.1. […] The catalytic activity of unmodified SlyD is 5.6·10^6 M^−1s^−1 and the activity of the L12-HES-SlyD conjugate is 6.0·10^6 M^−1s^−1 (107% of the activity of unconjugated SlyD). The higher activity of the conjugate compared to unmodified SlyD is within the error of the assay.

[2] = Stability tests of HES-protein conjugates at different pH, 40° C., 20 days; type: physicochemical; conditions: protein conjugate 1 mg/ml
Experimental: For stability tests at pH 4.0, 5.5, 7.0 and 8.0, the conjugates were diluted into final buffer conditions of 20 mM acetate (pH 4.0 and 5.5) or 10 mM phosphate (pH 7.0 and 8.0), 0.5 mM ETDA, 154 mM NaCl to a final concentration of 1 mg/ml. The conjugates were stored at 40° C. for 20 days and analyzed by RP-HPLC (example for Ubi is shown in FIG. 3), SEC (as described in example C1) or SDS-PAGE (as described in example C1).

Molecule	association rate ka [1] [M⁻¹ s⁻¹]	catalytic activity (prolyl isomerization) (peptidyl prolyl bonds) [M⁻¹ s⁻¹]	other results
unmodified IL1RA: interleukin-1 receptor antagonist (Kineret®), unconjugated	588000	–	–
IL1RA that is conjugated to HES via N-terminal coupling: IL1RA that is conjugated to HES via N-terminal coupling	263000	–	–
B1	–	5.6e+06	–
B2	–	6e+06	conjugate degradation after 20 days (%) pH 7.0 ([2]; 10 mM phosphate pH 7.0, 40° C.): 3.4%; conjugate degradation after 20 days (%) pH 8.0 ([2]; 10 mM phosphate pH 8.0, 40° C.): 9.0%; conjugate degradation after 20 days (%) pH 5.5 ([2]; 20 mM acetate pH 5.5, 40° C.): 1.4%; % of the activity of unconjugated SlyD (peptidyl prolyl bonds; relative to unconjugated SlyD): 107%
